Usually EC50 stands for the concentration that produces a half-maximal response. The term Kd denotes the equilibrium constant for the complex coming apart. As a reminder, the EC50 (read off the curve) is the concentration giving half of the maximal effect.

Substitutions are numbered along the chain they refer to.

Experiment [1] deals with T1, human CD3 (human, UniProt P07766 23-207).
T1 construct: whole, on cells; also called CD3 on human T-cells
Nature of the experiment: cell binding, human PBMC.

For experiment [2], the target named is T1, human CD3. Nature of the experiment: cell binding, human T-cells. Set-up: Bmax: unit not given here.
For experiment [3], the target named is T2, cyno CD3 (cyno (cynomolgus monkey), UniProt Q95LI5 22-198).
T2 construct: whole, on cells; also called CD3 on Cynomolgus T-cells
T2 sequence (Q95LI5 22-198): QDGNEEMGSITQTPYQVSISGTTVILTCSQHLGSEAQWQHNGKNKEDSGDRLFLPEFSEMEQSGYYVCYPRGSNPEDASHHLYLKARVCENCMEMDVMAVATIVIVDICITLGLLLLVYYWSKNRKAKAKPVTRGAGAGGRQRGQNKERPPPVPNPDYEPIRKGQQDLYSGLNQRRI
As to the kind of experiment: cell binding, cynomolgus T-cells.

The target in experiment [4] is Folate receptor-alpha (FOLR1) (human) (UniProt P15328). Nature of the experiment: summary table; FRα affinity over CD3 affinity.
Folate receptor-alpha (FOLR1) (human), sequence (P15328 25-234): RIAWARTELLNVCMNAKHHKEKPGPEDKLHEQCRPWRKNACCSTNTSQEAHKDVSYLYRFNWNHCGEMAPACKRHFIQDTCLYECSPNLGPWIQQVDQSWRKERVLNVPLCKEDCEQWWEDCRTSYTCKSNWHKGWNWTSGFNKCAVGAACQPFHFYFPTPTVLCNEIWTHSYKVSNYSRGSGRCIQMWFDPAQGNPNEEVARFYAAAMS
Experiment [5] has the same target. As to the kind of experiment: summary table; cell binding through the folate moiety.
For experiment [6], the target named is T1, human CD3. As to the kind of experiment: cell binding, human CD3, 50 nM SFA present.
Experiment [7] concerns the target T1, human CD3. As to the kind of experiment: summary table; cell binding EC50, human PBMC.
Experiment [8] has as its target Folate receptor-alpha (FOLR1) (human) (UniProt P15328). As to the kind of experiment: cell binding, FOLRα-expressing KB cells; through the folate moiety.
The target is the same in experiment [9]. As to the kind of experiment: cell binding, SKOV-3 cells with 50 nM SFA; through the folate moiety.
The target in experiment [10] is T1, human CD3. As to the kind of experiment: cell binding, human PBMC, 20 nM SFA present.
The target in a further experiment is Folate receptor beta (human, UniProt P14207 17-230). As to the kind of experiment: cell-based or functional assay.
Folate receptor beta, sequence (P14207 17-230): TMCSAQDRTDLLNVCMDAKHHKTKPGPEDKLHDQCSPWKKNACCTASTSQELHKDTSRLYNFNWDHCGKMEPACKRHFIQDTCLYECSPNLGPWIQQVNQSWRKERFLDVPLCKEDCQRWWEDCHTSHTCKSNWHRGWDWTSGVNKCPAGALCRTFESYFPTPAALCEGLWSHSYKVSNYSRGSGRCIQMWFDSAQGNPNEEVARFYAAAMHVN
Experiment [11] addresses T1, human CD3. Nature of the experiment: cell binding, activated human PBMC.
The target in experiment [12] is T2, cyno CD3. Nature of the experiment: cell binding, activated cyno PBMC; E. coli protein.
In experiment [13] the target is T1, human CD3. Nature of the experiment: cell binding, activated human PBMC; E. coli protein.
The target in experiment [14] is T2, cyno CD3. As to the kind of experiment: flow cytometry (MFI) titration on cyno CD3 (activated cyno PBMC), HEK293 culture supernatant. On the procedure: (§1) Screening for human and cyno CD3 binding: HEK293 culture supernatants were directly used to test for binding to human CD3 in the screening phase. In Round 1 experiment, initially 35 clones were tested for binding to human CD3 at three different protein concentrations, and 13 were selected for detailed binding assays to both human and cyno CD3. An 11-point binding titration curve was generated to both human (FIG. 4A) and cyno CD3 (FIG. 4B) for each clone. […] Similarly, 43 clones were screened in Round 2 experiment. After two-stage screening as described above for Round 1, 11 low-affinity variants were obtained, of which 4 are represented as shown in FIGS. 5A-5B

For experiment [15], the target named is T1, human CD3. As to the kind of experiment: flow cytometry (MFI) titration on human CD3 (activated human PBMC), HEK293 culture supernatant. The procedure: as §1
In general terms: A flow cytometer gives signals particle by particle.

Experiment [16] deals with T2, cyno CD3. Nature of the experiment: flow cytometry (MFI), 11-point titration on cyno CD3 (activated cyno PBMC), HEK293 culture supernatant. On the procedure: as §1
For experiment [17], the target named is T1, human CD3. Nature of the experiment: flow cytometry (MFI), 11-point titration on human CD3 (activated human PBMC), HEK293 culture supernatant. The procedure:
as §1

Experiment [18] concerns the target T1, human CD3. Nature of the experiment: flow cytometry (MFI) on activated human PBMC, Fab in HEK293 culture medium, concentration not shown. On the procedure:
Testing for CD3 binding with activated human and cyno PBMC: To distinguish between the humanized anti-CD3 antibodies generated, binding to human CD3 was tested using activated human PBMCs (n=2). The activation of PBMCs and subsequent fluorescence-based CD3 binding assays were followed as described previously (see for example, Angew Chem Int Ed Engl, 52(46):12101-12104, 2013). […] The binding of the remaining 6 humanized antibodies to both human and cyno CD3 using activated human and cyno PBMCs, respectively, was titrated. […] The six (6) humanized anti-CD3 antibodies were obtained as follows: Fab1, Fab2 and Fab3 wildtype were generated by combination of LC ((vL1.2+CL); (SEQ.ID. NO:7)) and HC ((vH1.2+CH1); (SEQ.ID. NO:1)), ((vH1.1+CH1); (SEQ.ID. NO:2)) and ((vH1.0+CH1); (SEQ.ID. NO:3)) respectively. Fab4, Fab 5 and Fab6 wildtype were generated by combination of LC ((vL1.1+CL); (SEQ.ID. NO:8)) and HC ((vH1.2+CH1); (SEQ.ID. NO:1)), ((vH1.1+CH1); (SEQ.ID. NO:2)) and ((vH1.0+CH1); (SEQ.ID. NO:3)) respectively.

T1 sequence (P07766 23-207): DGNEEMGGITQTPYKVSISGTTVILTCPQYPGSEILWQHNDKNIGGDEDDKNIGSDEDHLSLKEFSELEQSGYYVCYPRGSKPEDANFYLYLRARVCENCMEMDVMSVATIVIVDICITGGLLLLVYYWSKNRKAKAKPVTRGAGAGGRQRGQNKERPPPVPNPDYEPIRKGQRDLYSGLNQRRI

B1: Fab1-HK129-LL157-BiFolate (Fab, V domains shown)
VH: EVQLVESGGGLVQPGGSLRLSCAASGFTFNTYAMNWVRQAPGKGLEWVARIRSKYNNYATYYADSVKDRFTISRDDSKNILYLQMNSLKTEDTAVYYCVRHGNFGNSYVSWFAYWGQGTLVTVSS
VL: QAVVTQEPSLTVSPGGTVTLTCRSSTGAVTTSNYANWVQQKPGQAPRGLIGGTNKRAPGTPARFSGSLLGGKAALTLSGAQPEDEAEYYCALWYSNLWVFGGGTKLTVLG
modifications: pAF at LL157 (Kabat) conjugated to folate (oxime); pAF at HK129 (Kabat) conjugated to folate (oxime)
notes: From E. coli; carries two folates
With B1, the 50% effective concentration (EC50) was 1.93 nM with human CD3 [1], 2.37 nM with human CD3 [6] and 19.8 nM in experiment [9]. Further, the results for the “Fold increase binding (vs Fab1-HK129-Folate)” value (in the experiment with human CD3 [1]; in experiment [9]) were 1.3 fold and 2.2 fold, respectively. For the same molecule, the Bmax with human CD3 [2] came out at 24600; with cyno CD3 [3] it was 19600; in experiment [8] it was 74400. The Kd stood at 0.669 nM with human CD3 [2], 1 nM in the experiment with cyno CD3 [3] and 0.85 nM in experiment [8]. The Affinity ratio (FRα:CD3) in experiment [4] was 10. In addition, the FRα binding affinity in experiment [5] came out at 19.8 nM. This molecule also showed a CD3 binding affinity with human CD3 [7] of 1.93 nM.

B2: Fab1-HK129-LK172-BiFolate (Fab, V domains shown)
VH: B1 VH
VL: B1 VL
modifications: pAF at LK172 (Kabat) conjugated to folate (oxime); pAF at HK129 (Kabat) conjugated to folate (oxime)
notes: as for B1
On to B2, for which the half-maximal effective concentration (EC50) in the experiment with human CD3 [1] is 2.85 nM; in [9], 10 nM. Further, the “Fold increase binding (vs Fab1-HK129-Folate)” value stood at 0.86 fold with human CD3 [1] and 4.4 fold in [9]. Also, the Affinity ratio (FRα:CD3) in experiment [4] was found to be 3.5. The molecule further displayed an FRα binding affinity in experiment [5] of 10 nM. Besides, the CD3 binding affinity in the experiment with human CD3 [7] was determined as 2.85 nM.

B3: Fab9-HK129-LL157-BiFolate-Bi5KPEG (Fab, V domains shown)
VH: B1 VH with A49G, I80S
VL: B1 VL with V38F, T60V
modifications: pAF at LL157 (Kabat) conjugated to a bifunctional linker carrying folate and 5K PEG (oxime); pAF at HK129 (Kabat) conjugated to a bifunctional linker carrying folate and 5K PEG (oxime)
As for B3, the midpoint of the response in the experiment with human CD3 [10], the EC50, lay at 340 nM.

B4: Fab1-HK129-LL157-5KPEG-Folate (Fab, V domains shown)
VH: B1 VH
VL: B1 VL
modifications: pAF at LL157 (Kabat); 5K PEG-folate conjugated, and the label does not say at one site or both; pAF at HK129 (Kabat); 5K PEG-folate conjugated, and the label does not say at one site or both
As to B4, the “IC50, killing of human M2 macrophages with human T-cells, 50 nM folic acid” value with Folate receptor beta was found to be 0.112 nM.

B5: Fab1-HK129-LL157-Folate (Fab, V domains shown)
VH: B1 VH
VL: B1 VL
modifications: pAF at LL157 (Kabat); folate conjugated, and the label does not say at one site or both; pAF at HK129 (Kabat); folate conjugated, and the label does not say at one site or both
Turning to B5, the “IC50, killing of human M2 macrophages with human T-cells, 50 nM folic acid” value with Folate receptor beta is 0.0012 nM.

B6: Fab10-HK129-LL157-BiFolate-Bi5KPEG (Fab, V domains shown)
VH: B1 VH with N30S
VL: B1 VL with V38F, T60V
modifications: pAF at LL157 (Kabat) conjugated to a bifunctional linker carrying folate and 5K PEG (oxime); pAF at HK129 (Kabat) conjugated to a bifunctional linker carrying folate and 5K PEG (oxime)
Regarding B6, in the experiment with human CD3 [10], it took 6310 nM to reach a half-maximal effect (EC50).

B7: Fab20-HK129-Folate (Fab, V domains shown)
VH: B1 VH with N35H
VL: B1 VL with K55N
modifications: pAF at HK129 (Kabat) conjugated to folate (oxime)
Turning to B7, the binding result with human CD3 [11] is given as “no binding (tested: 1000 nM)”.

B8: Fab1 wildtype (vH1.2+CH1 / vL1.2+CL), humanized anti-CD3 SP34 (Fab, V domains shown)
VH: B1 VH
VL: B1 VL
notes: also called Fab1-WT; vH1.2+vL1.2
With B8, the figures for the concentration for a half-maximal effect (EC50) in the experiment with cyno CD3 [12] and in the experiment with human CD3 [13] were 0.75 nM and 0.93 nM, respectively. For the same molecule, the 50% effective concentration (EC50 (read off the curve)) was around 2 nM with cyno CD3 [14], around 0.8 nM in the experiment with human CD3 [15], around 0.6 nM with cyno CD3 [16] and around 0.7 nM with human CD3 [17].

B9: humanized anti-CD3 Fab vH1.0 + vL1.0 (Fab, V domains shown)
VH: B1 VH with A49G, I80S
VL: B1 VL with V38F, G48T, G51Y, G59W
notes: it has no Fab number; HEK293 supernatant; also called antibody with vL1.0 light chain and vH1.0
With B9, in the experiment with human CD3 [18], the binding result is listed as “no binding”.

B10: Fab19-HK129-Folate (Fab, V domains shown)
VH: B1 VH with N35H
VL: B1 VL
modifications: pAF at HK129 (Kabat) conjugated to folate (oxime)
For the molecule B10, the binding result with human CD3 [11] is reported as “no binding (tested: 1000 nM)”.

B11: Fab14 (Fab, V domains shown)
VH: B1 VH with A49G, I80S, V99A
VL: B1 VL with V38F, T60V
notes: distinct from m37 (Fab14-HK129-Folate); also called Fab14 (vH2.5 / vL2.1), wild type from HEK293
Regarding B11, the “EC50 (read off the curve)” value with cyno CD3 [14] was around 10 nM; in the experiment with human CD3 [15], around 5 nM.

B12: Fab8 (vH2.2 / vL2.1), wild type from HEK293 (Fab, V domains shown)
VH: B1 VH with A49G
VL: B1 VL with V38F, T60V
notes: HEK293 supernatant
With B12, the “EC50 (read off the curve)” value in the experiment with cyno CD3 [16] is around 6 nM.

B13: Fab9 (vH1.0 / vL2.1), wild type from HEK293 (Fab, V domains shown)
VH: B1 VH with A49G, I80S
VL: B1 VL with V38F, T60V
notes: HEK293 supernatant
As for B13, in the experiment with human CD3 [17], the “EC50 (read off the curve)” value is around 10 nM.

B14: humanized anti-CD3 Fab vH1.2 + vL1.0 (Fab, V domains shown)
VH: B1 VH
VL: B1 VL with V38F, G48T, G51Y, G59W
notes: it has no Fab number; HEK293 supernatant; also called antibody with vL1.0 light chain and vH1.2
B14: the binding result in the experiment with human CD3 [18] was “no binding”.

B15: humanized anti-CD3 Fab vH1.1 + vL1.0 (Fab, V domains shown)
VH: B1 VH with I80S
VL: B1 VL with V38F, G48T, G51Y, G59W
notes: it has no Fab number; HEK293 supernatant; also called antibody with vL1.0 light chain and vH1.1
B15: the binding result with human CD3 [18] is recorded as “no binding”.

B16: Fab7 (vH2.3 / vL2.4), wild type from HEK293 (Fab, V domains shown)
VH: B1 VH with V99A
VL: B1 VL with G59W, T60V
notes: HEK293 supernatant
With B16, the “EC50 (read off the curve)” value in the experiment with cyno CD3 [16] and with human CD3 [17] was around 2 nM in each case.

B17: Fab11-HK129-Folate (Fab, V domains shown)
VH: B1 VH with N30S, A49G, I80S
VL: B1 VL with V38F, G48T, G51Y, G59W
modifications: pAF at HK129 (Kabat) conjugated to folate (oxime)
For the molecule B17, in the experiment with human CD3 [11], the binding result is “no binding (tested: 1000 nM)”.

These data come from patent US20210317213A1 (AMBRX, published 2021).
